B1: Armadillo segment polarity protein (Drosophila melanogaster (Fruit fly)), P18824 (parent)
chain: MSYMPAQNRTMSHNNQYNPPDLPPMVSAKEQTLMWQQNSYLGDSGIHSGAVTQVPSLSGKEDEEMEGDPLMFDLDTGFPQNFTQDQVDDMNQQLSQTRSQRVRAAMFPETLEEGIEIPSTQFDPQQPTAVQRLSEPSQMLKHAVVNLINYQDDAELATRAIPELIKLLNDEDQVVVSQAAMMVHQLSKKEASRHAIMNSPQMVAALVRAISNSNDLESTKAAVGTLHNLSHHRQGLLAIFKSGGIPALVKLLSSPVESVLFYAITTLHNLLLHQDGSKMAVRLAGGLQKMVTLLQRNNVKFLAIVTDCLQILAYGNQESKLIILASGGPNELVRIMRSYDYEKLLWTTSRVLKVLSVCSSNKPAIVDAGGMQALAMHLGNMSPRLVQNCLWTLRNLSDAATKVEGLEALLQSLVQVLGSTDVNVVTCAAGILSNLTCNNQRNKATVCQVGGVDALVRTIINAGDREEITEPAVCALRHLTSRHVDSELAQNAVRLNYGLSVIVKLLHPPSRWPLIKAVIGLIRNLALCPANHAPLREHGAIHHLVRLLMRAFQDTERQRSSIATTGSQQPSAYADGVRMEEIVEGTVGALHILARESHNRALIRQQSVIPIFVRLLFNEIENIQRVAAGVLCELAADKEGAEIIEQEGATGPLTDLLHSRNEGVATYAAAVLFRMSEDKPQDYKKRLSIELTNSLLREDNNIWANADLGMGPDLQDMLGPEEAYEGLYGQGPPSVHSSHGGRAFHQQGYDTLPIDSMQGLEISSPVGGGGAGGAPGNGGAVGGASGGGGNIGAIPPSGAPTSPYSMDMDVGEIDAGALNFDLDAMPTPPNDNNNLAAWYDTDC
partner: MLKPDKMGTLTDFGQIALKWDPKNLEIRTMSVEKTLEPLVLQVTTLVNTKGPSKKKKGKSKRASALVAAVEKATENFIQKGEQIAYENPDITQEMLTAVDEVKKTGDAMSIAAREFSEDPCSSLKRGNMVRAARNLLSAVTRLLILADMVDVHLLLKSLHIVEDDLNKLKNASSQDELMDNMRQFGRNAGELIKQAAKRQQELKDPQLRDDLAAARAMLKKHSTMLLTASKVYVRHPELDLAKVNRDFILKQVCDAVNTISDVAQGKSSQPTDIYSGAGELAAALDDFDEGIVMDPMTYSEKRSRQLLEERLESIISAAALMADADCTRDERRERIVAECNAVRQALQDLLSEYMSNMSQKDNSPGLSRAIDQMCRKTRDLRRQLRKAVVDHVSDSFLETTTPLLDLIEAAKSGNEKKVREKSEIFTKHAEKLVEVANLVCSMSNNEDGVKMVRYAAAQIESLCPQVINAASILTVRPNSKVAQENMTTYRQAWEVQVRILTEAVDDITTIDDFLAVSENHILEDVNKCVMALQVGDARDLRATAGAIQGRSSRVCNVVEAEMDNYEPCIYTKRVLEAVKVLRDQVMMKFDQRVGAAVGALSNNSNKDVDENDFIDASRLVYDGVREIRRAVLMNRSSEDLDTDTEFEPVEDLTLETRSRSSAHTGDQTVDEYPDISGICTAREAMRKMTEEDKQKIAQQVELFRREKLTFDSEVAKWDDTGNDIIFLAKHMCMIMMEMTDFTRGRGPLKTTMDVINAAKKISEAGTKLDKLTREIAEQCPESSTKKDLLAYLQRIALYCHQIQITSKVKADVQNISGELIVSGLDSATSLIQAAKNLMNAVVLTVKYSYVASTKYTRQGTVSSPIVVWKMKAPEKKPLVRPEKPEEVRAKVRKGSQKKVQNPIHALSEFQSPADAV
B2: Catenin beta-1 (Mus musculus), Q02248 (parent)
chain: MATQADLMELDMAMEPDRKAAVSHWQQQSYLDSGIHSGATTTAPSLSGKGNPEEEDVDTSQVLYEWEQGFSQSFTQEQVADIDGQYAMTRAQRVRAAMFPETLDEGMQIPSTQFDAAHPTNVQRLAEPSQMLKHAVVNLINYQDDAELATRAIPELTKLLNDEDQVVVNKAAVMVHQLSKKEASRHAIMRSPQMVSAIVRTMQNTNDVETARCTAGTLHNLSHHREGLLAIFKSGGIPALVKMLGSPVDSVLFYAITTLHNLLLHQEGAKMAVRLAGGLQKMVALLNKTNVKFLAITTDCLQILAYGNQESKLIILASGGPQALVNIMRTYTYEKLLWTTSRVLKVLSVCSSNKPAIVEAGGMQALGLHLTDPSQRLVQNCLWTLRNLSDAATKQEGMEGLLGTLVQLLGSDDINVVTCAAGILSNLTCNNYKNKMMVCQVGGIEALVRTVLRAGDREDITEPAICALRHLTSRHQEAEMAQNAVRLHYGLPVVVKLLHPPSHWPLIKATVGLIRNLALCPANHAPLREQGAIPRLVQLLVRAHQDTQRRTSMGGTQQQFVEGVRMEEIVEGCTGALHILARDVHNRIVIRGLNTIPLFVQLLYSPIENIQRVAAGVLCELAQDKEAAEAIEAEGATAPLTELLHSRNEGVATYAAAVLFRMSEDKPQDYKKRLSVELTSSLFRTEPMAWNETADLGLDIGAQGEALGYRQDDPSYRSFHSGGYGQDALGMDPMMEHEMGGHHPGADYPVDGLPDLGHAQDLMDGLPPGDSNQLAWFDTDL
partner: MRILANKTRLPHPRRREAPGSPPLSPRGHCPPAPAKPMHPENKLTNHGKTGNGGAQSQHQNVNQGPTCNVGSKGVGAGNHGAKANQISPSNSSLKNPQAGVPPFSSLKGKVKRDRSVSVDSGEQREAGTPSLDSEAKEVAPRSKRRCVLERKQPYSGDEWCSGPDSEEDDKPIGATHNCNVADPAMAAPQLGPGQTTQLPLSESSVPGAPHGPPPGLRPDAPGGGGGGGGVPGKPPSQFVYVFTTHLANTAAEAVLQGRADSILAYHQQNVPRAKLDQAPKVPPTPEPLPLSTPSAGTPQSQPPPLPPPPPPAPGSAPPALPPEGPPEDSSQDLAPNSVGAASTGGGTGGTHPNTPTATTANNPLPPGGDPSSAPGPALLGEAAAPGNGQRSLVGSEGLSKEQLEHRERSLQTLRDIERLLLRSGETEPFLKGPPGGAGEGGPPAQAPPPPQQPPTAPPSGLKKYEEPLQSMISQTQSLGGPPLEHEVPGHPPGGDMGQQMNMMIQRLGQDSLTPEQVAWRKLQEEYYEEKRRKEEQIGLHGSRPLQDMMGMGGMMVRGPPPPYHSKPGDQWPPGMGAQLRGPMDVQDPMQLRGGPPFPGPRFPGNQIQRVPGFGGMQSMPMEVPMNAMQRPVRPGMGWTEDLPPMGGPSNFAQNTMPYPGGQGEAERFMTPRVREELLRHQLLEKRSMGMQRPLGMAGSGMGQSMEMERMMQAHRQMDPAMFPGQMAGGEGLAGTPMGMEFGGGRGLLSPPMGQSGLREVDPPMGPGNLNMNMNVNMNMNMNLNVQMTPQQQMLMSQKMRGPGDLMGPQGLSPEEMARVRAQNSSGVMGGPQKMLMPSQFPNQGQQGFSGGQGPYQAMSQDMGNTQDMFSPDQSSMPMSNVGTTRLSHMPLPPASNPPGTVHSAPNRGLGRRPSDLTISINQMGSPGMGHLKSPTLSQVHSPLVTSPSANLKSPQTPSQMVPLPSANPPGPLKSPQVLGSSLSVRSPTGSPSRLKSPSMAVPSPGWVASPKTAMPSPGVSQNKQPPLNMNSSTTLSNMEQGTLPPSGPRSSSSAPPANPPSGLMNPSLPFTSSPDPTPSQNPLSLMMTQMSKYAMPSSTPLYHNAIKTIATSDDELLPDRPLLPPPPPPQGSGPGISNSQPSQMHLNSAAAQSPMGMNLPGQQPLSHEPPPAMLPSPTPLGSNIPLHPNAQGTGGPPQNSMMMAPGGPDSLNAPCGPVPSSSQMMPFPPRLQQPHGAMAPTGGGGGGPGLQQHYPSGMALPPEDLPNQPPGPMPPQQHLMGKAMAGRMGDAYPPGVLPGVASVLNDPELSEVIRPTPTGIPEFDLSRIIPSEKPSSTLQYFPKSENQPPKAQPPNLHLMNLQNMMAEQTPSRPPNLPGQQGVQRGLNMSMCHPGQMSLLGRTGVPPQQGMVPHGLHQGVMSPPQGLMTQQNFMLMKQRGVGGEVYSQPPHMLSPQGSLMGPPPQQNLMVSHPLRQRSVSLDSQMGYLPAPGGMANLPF

Variants of: B1
Settings: with ctna_drome alpha-Cat

Variant | effect of a mutation on the interaction
Y150A | disrupting interaction

Variants of: B2
Settings: with bcl9l_human BCL9L

Variant | effect of a mutation on the interaction
D164A | disrupting interaction

Reference: IntAct's records for PubMed 17113272
